# Biological target: Homo sapiens selenoprotein S U188C (human) (UniProt Q9BQE4)
# Assay: SEC
substance,measurement,value
Homo sapiens selenoprotein S U188C (from UniProt Q9BQE4 1-189) (natural protein),stoichiometry N,2

# Reference: PMC3483405
